Data reported in patent publication US20140308201A1 (Novartis, published 2014).

B1: mAb12433 (antibody, human IgG1, kappa, V domains shown)
VH: QVQLVQSGAEVKKPGESLKISCKGSGYSFTNYYIHWVRQMPGKGLEWMGAIYPDNSDTTYSPSFQGQVTISADKSISTAYLQWSSLKASDTAMYYCARGADIWGQGTLVTVSS
VL: DIQMTQSPSSLSASVGDRVTITCRASQDIDPYLSNWYQQKPGKAPKLLIYDASNLQSGVPSRFSGSGSGTDFTLTISSLQPEDFATYYCQQTTSHPYTFGQGTKVEIKR
notes: HuCAL human IgG1
B2: 12425 Fab (Fab, V domains shown)
VH: QVQLLESGGGLVQPGGSLRLSCAASGFTFSDYAMSWVRQAPGKGLEWVSVIEGDGSYTHYADSVKGRFTISRDNSKNTLYLQMNSLRAEDTAVYYCAREKTYSSAFDYWGQGTLVTVSS
VL: DIQMTQSPSSLSASVGDRVTITCRASQDISSDLNWYQQKPGKAPKLLIYDASNLQSGVPSRFSGSGSGTDFTLTISSLQPEDFAVYYCQQHYSPSHTFGQGTKVEIKR

Key:
[1] = target: T1, Human FGFR2 IIIb D1-3 (human); assay: SPR Biacore, IgG captured via anti-human Fc, soluble FGFR as analyte
T1 construct: Extracellular domains D1-3 with C-terminal tag, made in HEK293T; also called recombinant human FGFR2 IIIb; hFGFR2
T1 chain: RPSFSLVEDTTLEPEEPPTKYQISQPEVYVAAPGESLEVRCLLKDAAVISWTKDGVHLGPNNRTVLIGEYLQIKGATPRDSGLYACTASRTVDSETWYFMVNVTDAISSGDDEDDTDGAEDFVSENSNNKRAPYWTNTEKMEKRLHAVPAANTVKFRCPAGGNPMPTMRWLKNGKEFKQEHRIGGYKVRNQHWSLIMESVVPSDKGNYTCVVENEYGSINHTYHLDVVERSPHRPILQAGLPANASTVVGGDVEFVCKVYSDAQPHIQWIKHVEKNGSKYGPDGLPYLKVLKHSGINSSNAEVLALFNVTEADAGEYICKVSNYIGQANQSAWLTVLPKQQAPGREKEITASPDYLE
Description: (§1) Affinity of the antibodies to FGFR2 species orthologues was determined using Biacore technology using a Biacore T100 instrument (GE Systems) and with CM5 sensor chips.
(§2) For kinetic measurements, experiments were performed in which the antibodies were immobilized to the sensor chip surface and the ability of the FGFR proteins described above listed in Table 1 to bind in free solution was determined Briefly, 50 μg/ml of anti-human Fc antibody at pH 4.75 was immobilized on a CM5 sensor chip through amine coupling at flow rate of 10 μl/minute on all four flow cells to reach 6000 RUs. […] Subsequently, 0.078-100 nM of FGFR receptors, diluted in a 2-fold series, were injected at a flow rate of 80 μl/min for 7 min over both reference and test flow cells. Dissociation of the binding was followed for 10 min using HBS-EP⁺ supplemented with 0.5 mg/ml of BSA and 10 μg/ml heparin as running buffer. After each injection cycle, the chip surface was regenerated with 10 mM glycine, pH 2.0 at 60 μl/min for 70 s.

[2] = target: T2, Mouse FGFR2 IIIb D1-3 (mouse); assay: as above
T2 construct: Extracellular domains with C-terminal tag
Description: as §1, §2

[3] = target: T3, Cynomolgus monkey FGFR2 IIIb D1-3 (cynomolgus monkey); assay: as above
T3 construct: also called Cyno FGFR2 IIIb
T3 chain: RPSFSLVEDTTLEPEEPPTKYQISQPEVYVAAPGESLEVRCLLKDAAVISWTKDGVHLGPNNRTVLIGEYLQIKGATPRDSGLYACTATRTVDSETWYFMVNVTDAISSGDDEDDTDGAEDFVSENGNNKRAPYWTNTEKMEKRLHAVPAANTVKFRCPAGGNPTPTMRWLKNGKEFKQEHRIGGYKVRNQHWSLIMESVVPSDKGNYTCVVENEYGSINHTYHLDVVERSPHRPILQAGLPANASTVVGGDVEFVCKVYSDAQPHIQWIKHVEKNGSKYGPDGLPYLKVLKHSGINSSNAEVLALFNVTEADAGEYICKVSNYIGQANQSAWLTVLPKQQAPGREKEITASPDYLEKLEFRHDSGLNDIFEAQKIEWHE
Description: as §1, §2

[4] = target: T4, Rat FGFR2 IIIb D1-3 (rat); assay: as above
T4 construct: Extracellular domains with C-terminal tag
Description: as §1, §2

[5] = target: T1, Human FGFR2 IIIb D1-3; assay: SPR Biacore, method as Example 2
Description: as §2

[6] = target: T2, Mouse FGFR2 IIIb D1-3; assay: SPR Biacore, method as Example 2
Description: as §2

[7] = target: T3, Cynomolgus monkey FGFR2 IIIb D1-3; assay: SPR Biacore, method as Example 2
Description: as §2

[8] = target: T4, Rat FGFR2 IIIb D1-3; assay: SPR Biacore, method as Example 2
Description: as §2

[9] = target: T5, FGFR2 D2-D3 Construct (human); assay: HDx-MS, antigen incubated 30 min with antibody
T5 construct: E. coli made, not glycosylated; also called E. Coli. derived FGFR2D2-D3 protein
T5 chain: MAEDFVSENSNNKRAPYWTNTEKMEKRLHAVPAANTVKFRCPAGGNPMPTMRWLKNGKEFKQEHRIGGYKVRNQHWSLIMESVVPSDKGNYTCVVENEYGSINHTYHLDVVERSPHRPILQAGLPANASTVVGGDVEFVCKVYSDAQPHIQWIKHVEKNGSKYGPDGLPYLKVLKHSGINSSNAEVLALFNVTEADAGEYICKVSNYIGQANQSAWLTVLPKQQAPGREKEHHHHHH
Description: The epitope mapping experiments described in this example were performed on a Waters HDx-MS platform, which includes a LEAP autosampler, nanoACQUITY UPLC System, and Synapt G2 mass spectrometer. The studies were automated by a LEAP autosampler operated by the LeapShell software, which performed initiation of the deuterium exchange reaction, reaction time control, quench reaction, injection onto the UPLC system and digestion time control. The Leap autosampler was equipped with two temperature controlled stacks maintained at 25° C. for HDx reaction and maintained at 2° C. for storage of protein and quench solution, respectively. Triplicate control experiments were carried out on antigen at a deuterium exchange time of 25 minutes. HDX was quenched with quenching buffer (6 M urea and 1 M TCEP pH=2.5). […] Triplicate experiments were carried out on antigen-mAb complex just as the control experiments except in these experiments the antigen in incubated for 30 min with the antibody at 25° C. prior to deuterium exchange.

[10] = target: T1, Human FGFR2 IIIb D1-3; assay: SPR Biacore, method as Example 2
Description: as §2

[11] = target: T6, FGFR2 D2 (human); assay: complex purified by size exclusion chromatography and crystallised
T6 construct: trypsin was added to the complex before crystallisation; also called FGFR D2; human FGFR2 ECD fragment (domain 2)
T6 chain: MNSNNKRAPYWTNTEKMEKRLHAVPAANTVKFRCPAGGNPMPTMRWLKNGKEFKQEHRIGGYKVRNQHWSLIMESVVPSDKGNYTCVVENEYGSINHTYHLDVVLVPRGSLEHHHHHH
Description: Peak fractions were analyzed by SDS-PAGE and LCMS.
Crystals were grown by sitting drop vapor diffusion. In detail, 0.1 μl of protein was mixed with 0.1 μl of reservoir solution which contains 0.1 M tri-sodium citrate dihydrate pH 5.0, 20% (w/v) PEG6000; and the drop was equilibrated against 45 μl of the same reservoir solution at 20° C.

T4 sequence (P21803 other isoform, or with tags, fused parts or gaps): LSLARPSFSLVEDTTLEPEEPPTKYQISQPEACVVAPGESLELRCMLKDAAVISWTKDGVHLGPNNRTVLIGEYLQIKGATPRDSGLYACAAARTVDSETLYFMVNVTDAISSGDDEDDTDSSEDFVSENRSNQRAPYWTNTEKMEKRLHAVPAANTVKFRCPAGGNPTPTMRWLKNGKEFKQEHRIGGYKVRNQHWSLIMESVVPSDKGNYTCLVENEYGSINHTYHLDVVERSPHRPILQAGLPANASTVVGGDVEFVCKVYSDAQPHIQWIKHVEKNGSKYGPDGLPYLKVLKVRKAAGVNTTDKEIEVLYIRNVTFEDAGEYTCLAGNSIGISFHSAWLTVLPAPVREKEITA

Row | Binder | Kd [1] [nM] | Kd [2] [nM] | Kd [3] [nM] | Kd [4] [nM] | Kd [5] [nM] | Kd [6] [nM] | Kd [7] [nM] | Kd [8] [nM] | binding result [9] | Kd [10] [nM] | binding result [11]
1 | B1 | 5.6 | 8 | 12 | 12 | 5.6 | 2.2 | 1.7 | 3.7 | binds | 5.6 | 
2 | B2 |  |  |  |  |  |  |  |  |  |  | binds
